Measurements: PMC9456514, “Three-Dimensional Envelope and Subunit Interactions of the Plastid-Encoded RNA Polymerase from Sinapis alba” (International Journal of Molecular Sciences, 2022)

Molecular target: T1, β subunit of the plastid-encoded RNA polymerase (SaRpoB) (Sinapis alba (endogenous in cotyledon …, UniProt P46818 1-1078))
T1 construct: RNA polymerase β subunit, product of the plastid gene rpoB, Sinapis alba
T1 sequence (looked up): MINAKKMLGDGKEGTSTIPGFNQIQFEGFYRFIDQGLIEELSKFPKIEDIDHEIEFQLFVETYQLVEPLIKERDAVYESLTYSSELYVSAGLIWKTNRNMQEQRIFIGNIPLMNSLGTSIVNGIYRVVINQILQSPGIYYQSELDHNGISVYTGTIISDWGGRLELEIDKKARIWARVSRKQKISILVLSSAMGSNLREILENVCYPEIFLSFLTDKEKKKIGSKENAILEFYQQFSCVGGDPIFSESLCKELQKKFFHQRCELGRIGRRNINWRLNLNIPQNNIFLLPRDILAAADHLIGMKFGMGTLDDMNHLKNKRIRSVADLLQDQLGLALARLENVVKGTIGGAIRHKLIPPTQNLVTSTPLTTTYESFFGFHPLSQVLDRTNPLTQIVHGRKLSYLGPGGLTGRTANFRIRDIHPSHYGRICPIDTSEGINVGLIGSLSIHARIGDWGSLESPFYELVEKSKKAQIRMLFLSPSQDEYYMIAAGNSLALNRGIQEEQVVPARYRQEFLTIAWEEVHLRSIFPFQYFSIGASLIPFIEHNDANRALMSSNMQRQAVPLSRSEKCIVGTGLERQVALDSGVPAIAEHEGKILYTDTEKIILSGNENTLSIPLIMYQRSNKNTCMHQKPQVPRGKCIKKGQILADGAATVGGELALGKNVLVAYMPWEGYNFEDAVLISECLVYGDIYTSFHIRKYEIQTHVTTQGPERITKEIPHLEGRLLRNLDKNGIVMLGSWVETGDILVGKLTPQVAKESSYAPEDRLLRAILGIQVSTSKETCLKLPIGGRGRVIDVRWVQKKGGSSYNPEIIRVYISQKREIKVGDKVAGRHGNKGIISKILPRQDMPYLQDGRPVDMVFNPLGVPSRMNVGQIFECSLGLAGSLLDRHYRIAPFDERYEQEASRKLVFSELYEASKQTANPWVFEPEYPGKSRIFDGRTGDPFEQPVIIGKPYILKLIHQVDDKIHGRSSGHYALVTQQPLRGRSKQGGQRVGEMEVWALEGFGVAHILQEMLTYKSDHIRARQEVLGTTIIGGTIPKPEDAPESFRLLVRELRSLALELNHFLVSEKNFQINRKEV
Assay: co-purification of the native complex with mass spectrometry; chloroplast lysate of S. alba cotyledons; heparin resin (elution 1.2 M (NH4)2SO4), 35-15% glycerol gradient, Q-Sepharose (0-1 M NaCl), 100-kDa cutoff concentration; three independent preparations; label-free MS, iBAQ values
Details: partners not purified

stoichiometry N: ~2
B1: α subunit of the plastid-encoded RNA polymerase (SaRpoA) (natural protein, UniProt Q9XQN8 1-327, looked up)
chain: MVREKVKVSTRTLQWKCVESRRDSKRLYYGRFILSPLMKGQADTIGIAMARALLGEIEGTCITRAKSENIPHDYSNIVGIQESVHEILMNLNEIVLKSNLYGTRNPFICVQGPGYITARDIILPPSVEIVDNTQHIATLTEPINLCIGLKIERNRGYSLKMSNNFEDRSYPIDAVFMPVQNANHSIHSYGNGNEKQEILFIEIWTNGSLTPKEALYEASRNLINLFIPFLHVEEETFYLENNQHQVTLPVFPFHNKLVNLRQKKKELAFQYIFIDQLELPPRIYNCLKKSNIHTLLDLLNNSQEDLIKMEHFHIEDVKKLLDILEKK
notes: RNA polymerase α subunit, product of the plastid gene rpoA, Sinapis alba
